Measured values as given in patent US20210317229A1.

Biological target: Recombinant EpCAM (R&D systems), conjugated with Alexa Fluor 647 (UniProt P16422)
Experiment: flow cytometry, AF647-labelled recombinant EpCAM at 360nM on HEK293T cells expressing the myc-tagged CAR; ratio to anti-myc-FITC signal

UniProt P16422, sequence (P16422 24-265 limits assumed): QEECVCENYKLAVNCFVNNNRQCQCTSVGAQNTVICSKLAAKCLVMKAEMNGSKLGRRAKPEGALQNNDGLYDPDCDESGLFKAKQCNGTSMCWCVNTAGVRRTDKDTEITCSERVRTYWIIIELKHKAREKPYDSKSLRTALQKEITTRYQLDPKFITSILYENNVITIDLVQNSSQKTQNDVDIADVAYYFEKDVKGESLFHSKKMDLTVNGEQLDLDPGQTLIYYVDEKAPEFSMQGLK

MFIAF647/MFIFITC	Substance
0.246	CAR containing D1A scFv (UBS-54 variant, CDR-H3 APFLHY) (from UniProt P01732 138-182; P10747 153-220; P20963 52-164)
0.016	CAR containing F3A scFv (UBS-54 variant, alanine at CDR-H3 position 3) (from UniProt P01732 138-182; P10747 153-220; P20963 52-164)
0.302	CAR containing L4A scFv (UBS-54 variant, CDR-H3 DPFAHY) (from UniProt P01732 138-182; P10747 153-220; P20963 52-164)
0.239	CAR containing Y6F scFv (UBS-54 variant, CDR-H3 DPFLHF) (from UniProt P01732 138-182; P10747 153-220; P20963 52-164)
0.026	CAR containing Y6V scFv (UBS-54 variant, CDR-H3 DPFLHV) (from UniProt P01732 138-182; P10747 153-220; P20963 52-164)
0.031	CAR containing Y6L scFv (UBS-54 variant, CDR-H3 DPFLHL) (from UniProt P01732 138-182; P10747 153-220; P20963 52-164)
0.018	CAR containing Y6A scFv (UBS-54 variant, CDR-H3 DPFLHA) (from UniProt P01732 138-182; P10747 153-220; P20963 52-164)
